How the values were obtained:
[1] = target: chimeric secretory component (CSC) of the polymeric immunoglobulin receptor (rabbit/human chimera); experiment: lateral flow assay
[2] = target: chimeric secretory component (CSC) of the polymeric immunoglobulin receptor (rabbit/human chimera); experiment: SEC

Substance “CB6-dIgA1 (dimeric IgA1 form of the SARS-CoV-2 specific monoclonal antibody CB6, with J chain)” has a limit of detection [1] of 0.123 µg/mL.
With “CB6-dIgA2 (dimeric IgA2 form of the SARS-CoV-2 specific monoclonal antibody CB6, with J chain)” the limit of detection [1] was 0.128 µg/mL.
“chimeric secretory component (CSC) of the polymeric immunoglobulin receptor” gave a stoichiometry N [2] of 2.
